We go through 6 molecules from US20250171562A1.

B1: NIgG4E2A1(G4S)2 (Fc fusion)
chain 1: DVQLQESGGGLVQAGGSLRLSCAASGRTISRYAVGWFRRPPAKEREFIGINWSGGSTTYADSAEGRFIISRDNAKNTVYLQMNSLKPEDTAVYYCAVPSVLVQGGISNPSQYDYWGQGTQVTVSGGGGSGGGGSGPPCPPCPAPEFLGGPSVFLFPPKPKDTLMISRTPEVTCVVVDVSQEDPEVQFNWYVDGVEVHNAKTKPREEQFNSTYRVVSVLTVLHQDWLNGKEYKCKVSNKGLPSSIEKTISKAKGQPREPQVYTLPPCQEEMTKNQVSLWCLVKGFYPSDIAVEWESNGQPENNYKTTPPVLDSDGSFFLYSRLTVDKSRWQEGNVFSCSVMHEALHNHYTQKSLSLSLGK
chain 2: EVQLLESGGGLVQPGGSLRLSCAASGFTFGNYDMAWVRQAPGKRPEWVSSIDTGGDITHYADSVKGRFTISRDNAKNTLYLQMNSLRPEDTAVYWCATDEEYALGPNEFDYYGQGTLVTVSSGGGGSGGGGSGPPCPPCPAPEFLGGPSVFLFPPKPKDTLMISRTPEVTCVVVDVSQEDPEVQFNWYVDGVEVHNAKTKPREEQFNSTYRVVSVLTVLHQDWLNGKEYKCKVSNKGLPSSIEKTISKAKGQPREPQVCTLPPSQEEMTKNQVSLSCAVKGFYPSDIAVEWESNGQPENNYKTTPPVLDSDGSFFLVSRLTVDKSRWQEGNVFSCSVMHEALHNHYTQKSLSLSLGK
B2: NIgG4E2A1(G4S)1 (Fc fusion)
chain 1: DVQLQESGGGLVQAGGSLRLSCAASGRTISRYAVGWFRRPPAKEREFIGINWSGGSTTYADSAEGRFIISRDNAKNTVYLQMNSLKPEDTAVYYCAVPSVLVQGGISNPSQYDYWGQGTQVTVSGGGGSGPPCPPCPAPEFLGGPSVFLFPPKPKDTLMISRTPEVTCVVVDVSQEDPEVQFNWYVDGVEVHNAKTKPREEQFNSTYRVVSVLTVLHQDWLNGKEYKCKVSNKGLPSSIEKTISKAKGQPREPQVYTLPPCQEEMTKNQVSLWCLVKGFYPSDIAVEWESNGQPENNYKTTPPVLDSDGSFFLYSRLTVDKSRWQEGNVFSCSVMHEALHNHYTQKSLSLSLGK
chain 2: EVQLLESGGGLVQPGGSLRLSCAASGFTFGNYDMAWVRQAPGKRPEWVSSIDTGGDITHYADSVKGRFTISRDNAKNTLYLQMNSLRPEDTAVYWCATDEEYALGPNEFDYYGQGTLVTVSSGGGGSGPPCPPCPAPEFLGGPSVFLFPPKPKDTLMISRTPEVTCVVVDVSQEDPEVQFNWYVDGVEVHNAKTKPREEQFNSTYRVVSVLTVLHQDWLNGKEYKCKVSNKGLPSSIEKTISKAKGQPREPQVCTLPPSQEEMTKNQVSLSCAVKGFYPSDIAVEWESNGQPENNYKTTPPVLDSDGSFFLVSRLTVDKSRWQEGNVFSCSVMHEALHNHYTQKSLSLSLGK
B3: CIgG4E2A1(G4S)2 (Fc fusion)
chain 1: GPPCPPCPAPEFLGGPSVFLFPPKPKDTLMISRTPEVTCVVVDVSQEDPEVQFNWYVDGVEVHNAKTKPREEQFNSTYRVVSVLTVLHQDWLNGKEYKCKVSNKGLPSSIEKTISKAKGQPREPQVYTLPPCQEEMTKNQVSLWCLVKGFYPSDIAVEWESNGQPENNYKTTPPVLDSDGSFFLYSRLTVDKSRWQEGNVFSCSVMHEALHNHYTQKSLSLSLGKGGGGSGGGGSDVQLQESGGGLVQAGGSLRLSCAASGRTISRYAVGWFRRPPAKEREFIGINWSGGSTTYADSAEGRFIISRDNAKNTVYLQMNSLKPEDTAVYYCAVPSVLVQGGISNPSQYDYWGQGTQVTVS
chain 2: GPPCPPCPAPEFLGGPSVFLFPPKPKDTLMISRTPEVTCVVVDVSQEDPEVQFNWYVDGVEVHNAKTKPREEQFNSTYRVVSVLTVLHQDWLNGKEYKCKVSNKGLPSSIEKTISKAKGQPREPQVCTLPPSQEEMTKNQVSLSCAVKGFYPSDIAVEWESNGQPENNYKTTPPVLDSDGSFFLVSRLTVDKSRWQEGNVFSCSVMHEALHNHYTQKSLSLSLGKGGGGSGGGGSEVQLLESGGGLVQPGGSLRLSCAASGFTFGNYDMAWVRQAPGKRPEWVSSIDTGGDITHYADSVKGRFTISRDNAKNTLYLQMNSLRPEDTAVYWCATDEEYALGPNEFDYYGQGTLVTVSS
B4: NIgG4E2A1(G4S)3 (Fc fusion)
chain 1: DVQLQESGGGLVQAGGSLRLSCAASGRTISRYAVGWFRRPPAKEREFIGINWSGGSTTYADSAEGRFIISRDNAKNTVYLQMNSLKPEDTAVYYCAVPSVLVQGGISNPSQYDYWGQGTQVTVSGGGGSGGGGSGGGGSGPPCPPCPAPEFLGGPSVFLFPPKPKDTLMISRTPEVTCVVVDVSQEDPEVQFNWYVDGVEVHNAKTKPREEQFNSTYRVVSVLTVLHQDWLNGKEYKCKVSNKGLPSSIEKTISKAKGQPREPQVYTLPPCQEEMTKNQVSLWCLVKGFYPSDIAVEWESNGQPENNYKTTPPVLDSDGSFFLYSRLTVDKSRWQEGNVFSCSVMHEALHNHYTQKSLSLSLGK
chain 2: EVQLLESGGGLVQPGGSLRLSCAASGFTFGNYDMAWVRQAPGKRPEWVSSIDTGGDITHYADSVKGRFTISRDNAKNTLYLQMNSLRPEDTAVYWCATDEEYALGPNEFDYYGQGTLVTVSSGGGGSGGGGSGGGGSGPPCPPCPAPEFLGGPSVFLFPPKPKDTLMISRTPEVTCVVVDVSQEDPEVQFNWYVDGVEVHNAKTKPREEQFNSTYRVVSVLTVLHQDWLNGKEYKCKVSNKGLPSSIEKTISKAKGQPREPQVCTLPPSQEEMTKNQVSLSCAVKGFYPSDIAVEWESNGQPENNYKTTPPVLDSDGSFFLVSRLTVDKSRWQEGNVFSCSVMHEALHNHYTQKSLSLSLGK
B5: CIgG4E2A1(RS) (Fc fusion)
chain 1: GPPCPPCPAPEFLGGPSVFLFPPKPKDTLMISRTPEVTCVVVDVSQEDPEVQFNWYVDGVEVHNAKTKPREEQFNSTYRVVSVLTVLHQDWLNGKEYKCKVSNKGLPSSIEKTISKAKGQPREPQVYTLPPCQEEMTKNQVSLWCLVKGFYPSDIAVEWESNGQPENNYKTTPPVLDSDGSFFLYSRLTVDKSRWQEGNVFSCSVMHEALHNHYTQKSLSLSLGKRSDVQLQESGGGLVQAGGSLRLSCAASGRTISRYAVGWFRRPPAKEREFIGINWSGGSTTYADSAEGRFIISRDNAKNTVYLQMNSLKPEDTAVYYCAVPSVLVQGGISNPSQYDYWGQGTQVTVS
chain 2: GPPCPPCPAPEFLGGPSVFLFPPKPKDTLMISRTPEVTCVVVDVSQEDPEVQFNWYVDGVEVHNAKTKPREEQFNSTYRVVSVLTVLHQDWLNGKEYKCKVSNKGLPSSIEKTISKAKGQPREPQVCTLPPSQEEMTKNQVSLSCAVKGFYPSDIAVEWESNGQPENNYKTTPPVLDSDGSFFLVSRLTVDKSRWQEGNVFSCSVMHEALHNHYTQKSLSLSLGKRSEVQLLESGGGLVQPGGSLRLSCAASGFTFGNYDMAWVRQAPGKRPEWVSSIDTGGDITHYADSVKGRFTISRDNAKNTLYLQMNSLRPEDTAVYWCATDEEYALGPNEFDYYGQGTLVTVSS
B6: CIgG4E2A1(G4S)1 (Fc fusion)
chain 1: GPPCPPCPAPEFLGGPSVFLFPPKPKDTLMISRTPEVTCVVVDVSQEDPEVQFNWYVDGVEVHNAKTKPREEQFNSTYRVVSVLTVLHQDWLNGKEYKCKVSNKGLPSSIEKTISKAKGQPREPQVYTLPPCQEEMTKNQVSLWCLVKGFYPSDIAVEWESNGQPENNYKTTPPVLDSDGSFFLYSRLTVDKSRWQEGNVFSCSVMHEALHNHYTQKSLSLSLGKGGGGSDVQLQESGGGLVQAGGSLRLSCAASGRTISRYAVGWFRRPPAKEREFIGINWSGGSTTYADSAEGRFIISRDNAKNTVYLQMNSLKPEDTAVYYCAVPSVLVQGGISNPSQYDYWGQGTQVTVS
chain 2: GPPCPPCPAPEFLGGPSVFLFPPKPKDTLMISRTPEVTCVVVDVSQEDPEVQFNWYVDGVEVHNAKTKPREEQFNSTYRVVSVLTVLHQDWLNGKEYKCKVSNKGLPSSIEKTISKAKGQPREPQVCTLPPSQEEMTKNQVSLSCAVKGFYPSDIAVEWESNGQPENNYKTTPPVLDSDGSFFLVSRLTVDKSRWQEGNVFSCSVMHEALHNHYTQKSLSLSLGKGGGGSEVQLLESGGGLVQPGGSLRLSCAASGFTFGNYDMAWVRQAPGKRPEWVSSIDTGGDITHYADSVKGRFTISRDNAKNTLYLQMNSLRPEDTAVYWCATDEEYALGPNEFDYYGQGTLVTVSS

In this assay the target is mixture of three Der p 2 specific recombinant human IgE clones H10, H12, P4E (human) (UniProt P01854). As to the kind of experiment: RBL-SX38 IgE displacement, FACS.
mixture of three Der p 2 specific recombinant human IgE clones H10, H12, P4E (human), sequence (P01854 other isoform, or with tags, fused parts or gaps): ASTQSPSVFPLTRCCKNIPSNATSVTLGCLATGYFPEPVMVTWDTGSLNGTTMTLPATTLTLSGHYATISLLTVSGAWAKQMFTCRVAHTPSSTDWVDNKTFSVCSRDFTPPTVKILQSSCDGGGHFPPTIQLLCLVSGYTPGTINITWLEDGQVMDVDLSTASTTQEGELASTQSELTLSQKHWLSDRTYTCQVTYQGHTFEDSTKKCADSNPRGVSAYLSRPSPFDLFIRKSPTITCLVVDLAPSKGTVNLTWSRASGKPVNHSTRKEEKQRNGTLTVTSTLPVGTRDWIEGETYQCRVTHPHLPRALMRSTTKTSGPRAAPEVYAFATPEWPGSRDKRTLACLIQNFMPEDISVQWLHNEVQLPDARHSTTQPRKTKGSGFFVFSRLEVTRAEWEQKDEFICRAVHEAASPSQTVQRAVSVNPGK
On to B1, for which the EC50 was 1.9 nM and the Max effect/effect 1 µM came out at 98%.
Taken in the same sequence, the figures for B2 were 2.3 nM and 95%.
Regarding B3, the EC50 was found to be 572 nM and the Max effect/effect 1 µM is 45%.
As for B4, the EC50 is 2 nM and the Max effect/effect 1 µM was determined as 97%.
For B5, the Max effect/effect 1 µM was determined as 6%.
On the same count and under the same terms, for B6 the value was 22%.
